Molecular target: the molecule itself
Assay: cryo-EM structure; ABCB6 WT purified in DDM/CHS, about 3.6 mg/mL on grids; apo, inward-facing; final refinement with C2 symmetry applied

B1: human ATP-binding cassette sub-family B member 6 (ABCB6) WT-Flag (natural protein)
chain: MVTVGNYCEAEGPVGPAWMQDGLSPCFFFTLVPSTRMALGTLALVLALPCRRRERPAGADSLSWGAGPRISPYVLQLLLATLQAALPLAGLAGRVGTARGAPLPSYLLLASVLESLAGACGLWLLVVERSQARQRLAMGIWIKFRHSPGLLLLWTVAFAAENLALVSWNSPQWWWARADLGQQVQFSLWVLRYVVSGGLFVLGLWAPGLRPQSYTLQVHEEDQDVERSQVRSAAQQSTWRDFGRKLRLLSGYLWPRGSPALQLVVLICLGLMGLERALNVLVPIFYRNIVNLLTEKAPWNSLAWTVTSYVFLKFLQGGGTGSTGFVSNLRTFLWIRVQQFTSRRVELLIFSHLHELSLRWHLGRRTGEVLRIADRGTSSVTGLLSYLVFNVIPTLADIIIGIIYFSMFFNAWFGLIVFLCMSLYLTLTIVVTEWRTKFRRAMNTQENATRARAVDSLLNFETVKYYNAESYEVERYREAIIKYQGLEWKSSASLVLLNQTQNLVIGLGLLAGSLLCAYFVTEQKLQVGDYVLFGTYIIQLYMPLNWFGTYYRMIQTNFIDMENMFDLLKEETEVKDLPGAGPLRFQKGRIEFENVHFSYADGRETLQDVSFTVMPGQTLALVGPSGAGKSTILRLLFRFYDISSGCIRIDGQDISQVTQASLRSHIGVVPQDTVLFNDTIADNIRYGRVTAGNDEVEAAAQAAGIHDAIMAFPEGYRTQVGERGLKLSGGEKQRVAIARTILKAPGIILLDEATSALDTSNERAIQASLAKVCANRTTIVVAHRLSTVVNADQILVIKDGCIVERGRHEALLSRGGVYADMWQLQQGQEETSEDTKPQTMER
notes: ABCB6, human, UniProt Q9NP58; the preparation holds the N-terminal TMD0, but the final model has no density for it; The protein was eluted from Flag resin with 3X Flag peptide and no tag cleavage is described
  binding result: binds

Reference: article PMC11574312, “The role of ATP-binding Cassette subfamily B member 6 in the inner ear” (Nature Communications, 2024)
